{"source": "the nanobody polyreactivity screen of Harvey et al. (2022)", "data": [{"assay": "yeast display, Sf9 membrane polyspecificity reagent, FACS + sequencing; frameworks hold sequencing errors", "how_it_was_run": "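A synthetic nanobody library was expressed on Saccharomyces cerevisiae BJ5465 by galactose induction for 36–48 hours. The library was stained for 1 hour at 4 °C with 10% biotinylated, detergent-solubilized Sf9 membrane reagent and enriched with streptavidin microbeads before FACS. Low and high (top ~1%) gates were set on anti-HA fluorescence for expression and streptavidin fluorescence for reagent binding, and each polyreactivity label reflects the gate of origin.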", "values": [{"sequence": "QVQLVESGGGLVQAGGSLRLSCAASGNTFLYYGMGWYRQAPGKERELVAAITSGGITYYADSVKGRFTISRDNAKNTVYLQMNSLKPEETAVYFCNKDVGFTRPLYYWGQGTQVTVSS", "polyreactivity (PSR sort gate)": "low polyreactivity"}, {"sequence": "QVQLVESGGGLVQAGGSLRLSCAASGNTFNRYAMGWYRQAPGKESELVATISYRGGSTSYADSVKGRFTISRDNAKNTVYLQMNSLKPEDTAVYYCATEEGYVLYKYYSWGQGTQVTVSS", "polyreactivity (PSR sort gate)": "low polyreactivity"}, {"sequence": "QVQLVESGGGLVQAGGSLRLSCAASGNTFNYYTMGWYRQEPGKERELVAAIRSGGRTYYADSVKGRFTISRDNAKNTVYLLMNSLIPEDTAVYDCAAVAVTYRYDYWGQGTQVTVSS", "polyreactivity (PSR sort gate)": "high polyreactivity"}, {"sequence": "QVQLVESGGGLVQAGGSLRLSCAASGNTFPGYAMGWYRQAPGKEREFVATITSNDGTTYYADSVKGRFTISRDNAKNTVYLQLNSLKPEDTAVYYCAKRLSDSWPPNWGYNYWGQGTQVTVSS", "polyreactivity (PSR sort gate)": "low polyreactivity"}, {"sequence": "QVQLVESGGGLVQAGGSLRLSCAASGNTFPINAMGWYRQAPGKERELVATITRPGGSTYYADSVKARFTISRDNAKNTVYLQMNSLKPEDTAVYYCAAANYTYASRWYDYWGQGTQVTVSS", "polyreactivity (PSR sort gate)": "low polyreactivity"}, {"sequence": "QVQLVESGGGLVQAGGSLRLSCAASGNTFPIYAMGWSRQAPGKERELVAAIRSSTGSTYYADSVKGRFTISRDYAKNTVYLQMNSLKPEATAVYYCAAAGVTSVVYGTRYYYWGQGTQVTVSS", "polyreactivity (PSR sort gate)": "high polyreactivity"}, {"sequence": "QVQLVESGGGLVQAGGSLRLSCAASGNTFRSYVMGWYRQAPGKERELVADISSGDGTNYADSVKGRFTISRDNAKNTVYLQMNSLKPEDTAVYYCAAEWSEESDYWGQGTQVTVSS", "polyreactivity (PSR sort gate)": "low polyreactivity"}, {"sequence": "QVQLVESGGGLVQAGGSLRLSCAASGNTFRWYAMGWYRQAPGKEREFVADITVRGGSTYYADSVKGRFTISRDNAKNTVYLQMNSLKPEDTAVYYCAVDFRRYPGFDYWGQGTQVTVSS", "polyreactivity (PSR sort gate)": "low polyreactivity"}, {"sequence": "QVQLVESGGGLVQAGGSLRLSCAASGNTFRWYAMGWYRQAPGKERELVATISRRGGITYYADSVKGRFTISRDNAKNTVYFQMNSLKPEDTAVYYCAAYSGSGLGAYDYWGQGTQVTVSS", "polyreactivity (PSR sort gate)": "high polyreactivity"}, {"sequence": "QVQLVESGGGLVQAGGSLRLSCAASGNTFRYYAMGWYRQAPGKERDLVAAISESGGRTYYADSVKGRFTISRDNAKKTVYLQMNSLKPEDTAFYYCAASRWARTWWYGYNYWGQGTQVTVSS", "polyreactivity (PSR sort gate)": "high polyreactivity"}, {"sequence": "QVQLVESGGGLVQAGGSLRLSCAASGNTFSVYAMGWYRQAPGKERELVAGITTSGGSTYYADSVKGRFTISRDNAKNTVYLQMNSLKPEDTAVYYCATDISTSYYYQYSSFYQYDSWGQGTQVTVSS", "polyreactivity (PSR sort gate)": "low polyreactivity"}, {"sequence": "QVQLVESGGGLVQAGGSLRLSCAASGNTFTRNAMGWYRQAPGKERELVAAITGRGGTYYADSVKGRFTISRDNAKNTVYLQMNSLKPEDTAVYYCNAVYRSSYQKGSMDYWGQGTQVTVSS", "polyreactivity (PSR sort gate)": "high polyreactivity"}, {"sequence": "QVQLVESGGGLVQAGGSLRLSCAASGNTFTWYTIGWYRQAPGKERELVAVITSDGSKYYADSVKGRFTISRDNAKNTFYLQMNSLKPEVTAVYYCTVGGGTNYGYGYWYGFYYWGQGTQVTVYS", "polyreactivity (PSR sort gate)": "low polyreactivity"}, {"sequence": "QVQLVESGGGLVQAGGSLRLSCAASGNTFTWYTIGWYRQAPGKERELVAVSTSDGSTYYADSVKGRFTISRDNAKHTVYLQMNSLKPEDTAVYYCTAGGGTNYGSGYWYGYYYWGQGTQVTVSS", "polyreactivity (PSR sort gate)": "low polyreactivity"}, {"sequence": "QVQLVESGGGLVQAGGSLRLSCAASGNTFVGNAMGWYRQAPGKERELVAVITWSGGSTYYADSVKGRFTISRDNAKNTVYLQMNSLKPEDTAVYYCAARKFGTSVTHRGYWGQGTQVTVSS", "polyreactivity (PSR sort gate)": "low polyreactivity"}, {"sequence": "QVQLVESGGGLVQAGGSLRLSCAASGNTFVYKDMGWYRQAPGKERELVADIRYSGSTYYADSVKGRFTISRDNAKNTVYLQMNSLKPEDTAVYYCAKAYYVLSWMGYWGQGTQVTVSS", "polyreactivity (PSR sort gate)": "low polyreactivity"}, {"sequence": "QVQLVESGGGLVQAGGSLRLSCAASGNTFVYNDMGWYRQAPGKERELVADIRYSGSTYYADSVKGRFTISRDNAMNSVYLQMNSLKPEDTAVYYCAKAYYVLSWMGYWGQGTQVTVSS", "polyreactivity (PSR sort gate)": "low polyreactivity"}, {"sequence": "QVQLVESGGGLVQAGGSLRLSCAASGNTFWPYAMGWYRQAPGKERELVAAISWRGSRTYYADSVKGRFTISRDNAKNTVYLQMNSLKPEDTAVYYCAADYKYVGSEYGYWGQGTQVNVSS", "polyreactivity (PSR sort gate)": "low polyreactivity"}, {"sequence": "QVQLVESGGGLVQAGGSLRLSCAASGNTFWRYTMGWYRQAPGKERELVAAISSSGGSTYYADSVKGRFTISRDNAKNTVYLQMNSLKPEDTAVYYCAADSGSSRSRRGYEYWGQGTQVTVSS", "polyreactivity (PSR sort gate)": "high polyreactivity"}, {"sequence": "QVQLVESGGGLVQAGGSLRLSCAASGNTFWSYAMGWYRQAPGKERELVAAITQRGGSTYYADSVKGRFTISRDNAKNNVDLQMNSLKPEDTAVYYCAADTYYKGDYWGQGTQVTVSS", "polyreactivity (PSR sort gate)": "high polyreactivity"}, {"sequence": "QVQLVESGGGLVQAGGSLRLSCAASGNTFYANTMGWYRQAPGKERELVAAITVRGASTNYADSVKGSFTISRDNAKNTVYLQMNSLKPEDTAVYYCNAVGLRSPWHQDYLIRYDYRGQGTQVTVSS", "polyreactivity (PSR sort gate)": "low polyreactivity"}, {"sequence": "QVQLVESGGGLVQAGGSLRLSCAASGNTFYFNAMGWYRQAPGKERELVAAITSGGNTNYADSVKGRFTISRDHAKNTFNLQMNSLKPEDSAVYYCNVPRFSPIRNYDYWGQGTQVTVSS", "polyreactivity (PSR sort gate)": "high polyreactivity"}, {"sequence": "QVQLVESGGGLVQAGGSLRLSCAASGNTFYFYAMGWYRQAPGKERELVAAIRWSGSRTYADSVKGRFTISRDNAKNTVYLQMNSLKPEDTAVYYCNADSIWGYDYWGQGTQVTVSS", "polyreactivity (PSR sort gate)": "high polyreactivity"}, {"sequence": "QVQLVESGGGLVQAGGSLRLSCAASGNTFYFYAMGWYRQAPGKERELVASITRRGGSTYYADSVKGRFTISRDNAKNTVYLQMNSLKPEDTAVYYCARYPARYGGYYDYDYWGQGTQVTVSS", "polyreactivity (PSR sort gate)": "high polyreactivity"}, {"sequence": "QVQLVESGGGLVQAGGSLRLSCAASGNTFYGYTMGWYRQAPGKERELVAAISSRGGSTYYADSVKGRFTISRDNAKNTVYLQMISLKPEDTAVYYCAAVRPVKKFPYCYWGQGTQVTVSS", "polyreactivity (PSR sort gate)": "high polyreactivity"}, {"sequence": "QVQLVESGGGLVQAGGSLRLSCAASGNTFYLYAMGWYRQAPGKERELVASITGGTRTNYADSVKGRFTISRDNAKNTVYLQMNSLKPEDTAVYYCAKTYPRTVGKYLSRGGYYYWGQGTQVTVSS", "polyreactivity (PSR sort gate)": "high polyreactivity"}, {"sequence": "QVQLVESGGGLVQAGGSLRLSCAASGNTFYQYAMGWYRQAPGKERELVAAIDWSGGSTYADSVKGRFTISRDNAKNTVYLQINSLKPEDTAVYYCNASVKPSNVWSRGYDYWGQGTQVTVSS", "polyreactivity (PSR sort gate)": "low polyreactivity"}, {"sequence": "QVQLVESGGGLVQAGGSLRLSCAASGNTFYRNAMGWYRQAPGKERELVAAISTTGVSTYYADSVKGRFTISRDNAKNTVYVQMTSLKPEDTAVYYCAAEIIGYHTIYDYWGQGTQVTVSS", "polyreactivity (PSR sort gate)": "low polyreactivity"}, {"sequence": "QVQLVESGGGLVQAGGSLRLSCAASGNTFYSYAMGWYRPAPGKERELVAAITWGGRTKYADSVKGRFTISRDNAKNTVYLQMNSLKPEDTAVYYCAARLYHGKTKYDYWGQGTQVTVSS", "polyreactivity (PSR sort gate)": "high polyreactivity"}, {"sequence": "QVQLVESGGGLVQAGGSLRLSCAASGNTFYVNVMGWYRQAPGKEREFVAAISTRGVSTSYADSVKGRFTISRDNAKNTVYLQMNSLKPEDTAVYYCAASFRRPQPKGTTYGYWGQGTQVTVSS", "polyreactivity (PSR sort gate)": "high polyreactivity"}, {"sequence": "QVQLVESGGGLVQAGGSLRLSCAASGNTFYWNAMGWYRRAPGKERELVAAISTTGVSTYYADSVKGRFTISRDKAKNTVYLQMNSLKPEDTAVYFCAAEIIGYHTIYDYWGQGTQVTVSS", "polyreactivity (PSR sort gate)": "low polyreactivity"}, {"sequence": "QVQLVESGGGLVQAGGSLRLSCAASGNTINVNTMGWYRQAPGKERELVAAISKRGGSTYYADSVKGRFTISRDNAKNTVYLQMNSLKPEDTAVYYCAKQVSLPRYHYGSAPYGYWGQGTQVTVSS", "polyreactivity (PSR sort gate)": "high polyreactivity"}, {"sequence": "QVQLVESGGGLVQAGGSLRLSCAASGNTLAKYAMGWYRQAPGKERELVAAISWSGGRTFYADSVKGRFTISRDNAKNTVYLQMNSLKPEDSAVYYCNKVKGQSFSSYGYWGQGTQVTVSS", "polyreactivity (PSR sort gate)": "high polyreactivity"}, {"sequence": "QVQLVESGGGLVQAGGSLRLSCAASGNTLAYYDMGWYRQAPGKESELVAAITSGGTTNYADSVKGRFTISRDNAKNTVYLQMNSLKPEDTAVYYSAALGIGSSRRFSGYVYWGQGTQVTVSS", "polyreactivity (PSR sort gate)": "low polyreactivity"}, {"sequence": "QVQLVESGGGLVQAGGSLRLSCAASGNTLDAYTMGWYRQAPGKERELVAAISRGGTRTYYADSVKGRFTISRDNAKNTVYLQMNSLKPEDTAVYYCNKVRDYSYDSWGQCTQVTVSS", "polyreactivity (PSR sort gate)": "high polyreactivity"}, {"sequence": "QVQLVESGGGLVQAGGSLRLSCAASGNTLHVYAMGWYRQAPGKERELVARITGGGRTYYADSVKGRFTISRDNAKNTVYLQMNSLKTEDTAVYYCATDYYGHKVLYDYWGQGTQVTVSS", "polyreactivity (PSR sort gate)": "low polyreactivity"}, {"sequence": "QVQLVESGGGLVQAGGSLRLSCAASGNTLRVYALGWYRQAPGKERELVAAISYSSVNTYYADSVKGRFTISRDNAKNTVYLQMNSLKPEDTAVYYCAADYYYYRRTQYDLRGYPYYYWGQGTQVTVSS", "polyreactivity (PSR sort gate)": "low polyreactivity"}, {"sequence": "QVQLVESGGGLVQAGGSLRLSCAASGNTLTYNVMGWYRQAPGKDWDLVAAISGRGGRTYYADSVKGRFTISRDNAKNTVYLQMNSLKPEDTAVYYCAATSRNGESGGFYYWGQGTQVTVSS", "polyreactivity (PSR sort gate)": "high polyreactivity"}, {"sequence": "QVQLVESGGGLVQAGGSLRLSCAASGNTLWRNAMGWYRQAPGKERELVATISSVGTYYADSVKGRFTISRDNAKNSVYFQMNSLKPEDTAVYYCAARIWAFYSRRYFWGQGTQVTVSS", "polyreactivity (PSR sort gate)": "high polyreactivity"}, {"sequence": "QVQLVESGGGLVQAGGSLRLSCAASGNTSVPYAMGWYRQAPGKERELVARITWSTGRTYYADSVKGRFTISRDNAKNTVYLQMNSLKPVDTAVYYCATEAWLPGSGGDYWGQVTQVTVSS", "polyreactivity (PSR sort gate)": "low polyreactivity"}, {"sequence": "QVQLVESGGGLVQAGGSLRLSCAASGNTYIRNVMGCYRQAPGKERELVAGIRTGGSTFYADSVKGRFTISRDNAKNPVYLQMNSLKPEDTAVYYCAGYQLRLVYGYGYWGQGTQVTVSS", "polyreactivity (PSR sort gate)": "low polyreactivity"}, {"sequence": "QVQLVESGGGLVQAGGSLRLSCAASGPIFAYNAMGWYRQAPGKERELVAAISYSGGSTYYADSVKGRFTISRDNAKNTVYLQMNSLKPEDTAVYYCNAVYRYRTYRYDYWGQGTQVTVSS", "polyreactivity (PSR sort gate)": "high polyreactivity"}, {"sequence": "QVQLVESGGGLVQAGGSLRLSCAASGPIFAYNAMGWYRQATGKERELVAAISYSGGSTYYPDSVKGRFTISRDNEKNSVYLQMNSLKPEDTAVYYCNAVYRYRTYRYDYWGQGTQVTVSS", "polyreactivity (PSR sort gate)": "high polyreactivity"}]}]}
